Among the data in PMC12461627, “Locking CBL TKBD in its native conformation presents a novel therapeutic opportunity in mutant CBL-dependent leukemia” (Molecular Therapy, 2025) are response values, retold here.

B1: unnamed (parent)
chain 1: MTVEEMDSWIKSWDQM
chain 2: PPGTVDKKMVEKCWKLMDKVVRLCQNPKLALKNSPPYILDLLPDTYQHLRTILSRYEGKMETLGENEYFRVFMENLMKKTKQTISLFKEGKERMYEENSQPRRNLTKLSLIFSHMLAELKGIFPSGLFQGDTFRITKADAAEFWRKAFGEKTIVPWKSFRQALHEVHPISSGLEAMALKSTIDLTCNDYISVFEFDIFTRLFQPWSSLLRNWNSLAVTHPGYMAFLTYDEVKARLQKFIHKPGSYIFRLSCTRLGQWAIGYVTADGNILQTIPHNKPLFQALIDGFREGFYLFPDGRNQNPDLTGLCEP

Variants of B1 are the subject of the experiment. Put plainly: phage ELISA. To be noted: with partner chain of the complex shown;; read off a plot.
For chain 2 G260E, the response was 0.1 OD at 450 nm.
